These are literature values, as cited in patent US11147882B2, “Method for preserving and stabilizing proteins for formulations of sanitary, pharmaceutical and cosmetic products” (SANI-RED, S.L., priority 2013, dated 2021).

Regarding “EGF: epidermal growth factor, first polypeptide isolated and characterized as a growth factor; rhEGF is the recombinant human form”, the “half-life of rhEGF at 25° C.” value (25° C., based on the Arrhenius equation (Yang et al. 2005)) is recorded as 6.93 h. For the same substance, under “37 °C, pH 7.2”, the “half-life at 37 C” value is reported as 3.47 h. For the same substance, the “half-life (mean life, useful life) of EGF” value (EGF normally, published studies) was 7 h.

In general, half-life refers to the time in which the quantity being followed falls by half.
